Assay results reported in US20260028677A1, “Compositions and Methods for Modulating Genetic Drivers” (Flagship Pioneering Innovations VII, LLC, priority 2022, published 2026).
Positions count from the first letter of the chain named. Names and notes keep the numbering of the source. “Also recorded” adds a separate entry of the source.

B1: SEQ ID NO: 5391: novel, un-annotated target protein (predicted TM protein) carrying a TCGA mutation site, over-expressed from pcDNA3.1 plasmid (protein, listed as Homo sapiens)
chain: LLLLIIWVRVTFMSCSTHREGLQLRYSLLKPARPRTHREEETTPDAPPLRAVTLTVKVCGITPEVRETTNPPEETPDASEHLKEQTLDTPSLRTETPRQFAASFLKAVRPRTHQFWTQKDLSRLRKWQAIYEEGRDSKRWSQVL
B2: SEQ ID NO: 5391_P31L: mutant version of SEQ ID NO: 5391 that contains the TCGA P31L mutation (protein, listed as Homo sapiens)
chain: B1 chain with P31L
B3: SEQ ID NO: 4335: target protein, extracellular transmembrane protein, over-expressed from plasmid (protein, listed as Homo sapiens)
chain: MNLNPRLRLQVISFHPHPKALAVTLLPALTQSLCLCMASCVYSGPKGFLFLFFPQTAQEKHMKNIT
B4: SEQ ID NO: 5392: target protein, extracellular transmembrane protein, over-expressed from plasmid (protein, listed as Homo sapiens)
chain: MVEKSHPSSLPTLPQPLNHCPETYMLLSAAPSGASQLLSTLTLFLKKHRMDIRTISLRMLLSHTGKLAL
B5: SEQ ID NO: 4538: target protein, extracellular transmembrane protein, over-expressed from plasmid (protein, listed as Homo sapiens)
chain: LARLFLRPRGPRSPIIQFRRVTGAAVASQGAGSLSPALLPLAPSPRPRRAGLRGQGPSGEGYHLTWKKMSSLEKKHSNVIVQNSLNIHNR

Tests used:
[1] = test system: colon cancer cell line HCT116 cells; assay: WST-1 cell proliferation assay, transient over-expression in HCT116; assay type: cell-based; conditions: transient over-expression from pcDNA3.1 plasmid with Lipofectamine 3000 in HCT116; WST-1 48 hours after transfection; high serum conditions; vs control
Description: WST-1 assay on HCT-116 to examine their cell viability and growth when transiently over-expressed SEQ ID NO: 5391 using Lipofectamine 3000. After plasmid transfection, cell proliferation was measured 48 hours later using WST-1 assay. Data are presented as the mean±SD of three independent experiments performed in triplicate.
Protein overexpression plasmids encoding Target Proteins or controls were transiently transfected into multiple cell lines. 24 hours later proliferation was measured using WST-1 assay.
(§1) Seed the cells of interest into 96-well plate at a density of 4,000 cells per well in 100 μL of cell culture medium. Incubate the cells in a humidified incubator at 37° C. with 5% CO2 for 24 hours. Dilute the Lipofectamine 3000 (Thermo Fisher) in Opti-MEM medium (Thermo Fisher) to a final concentration of 30 μL/mL. […] Measure the absorbance at 450 nm using a microplate reader. A reference wavelength of 650 nm can be used to correct for background absorbance. Calculate the percentage of viable cells in each well by subtracting the absorbance of the blank (medium only) from the absorbance of each well and expressing the results as a percentage of the control group.

[2] = test system: lung cancer (A549), liver cancer (HepG2), and colon cancer (HCT-116) cells; assay: WST-1 cell proliferation assay, transient over-expression in multiple cell lines; assay type: cell-based; conditions: genetic overexpression in multiple cell lines (A549, HepG2, HCT-116); WST-1 48 hours after transfection; vs pcDNA3.1-Myc negative control
Description: FIGS. 2A-2C show analysis of cell viability using the WST-1 assay on lung cancer (A549), liver cancer (HepG2), and colon cancer (HCT-116). Cells were transfected with SEQ ID NO: 4538, SEQ ID NO: 5392, and SEQ ID NO: 4335 individually. pcDNA3.1-Myc tagged was used for negative control. After plasmid transfection, cell proliferation was measured 48 hours later using WST-1 assay. Data are presented as the mean±SD of three independent experiments performed in triplicate. FIG. 2A) WST-1 results in HCT-116 cells. Top: low serum, Bottom: High serum. FIG. 2B) WST-1 results in HepG2 cells. Top: low serum, Bottom: High serum. FIG. 2C) WST-1 results in A549 cells. Top: low serum, Bottom: High serum.
Experimental Design: Protein overexpression plasmids encoding Target Proteins or controls were transiently transfected into multiple cell lines. 24 hours later proliferation was measured using WST-1 assay.
as §1, with “Materials and Methods: Seed” for “Seed”

Molecule	proliferation of colon cancer cells (WST-1 assay) [1]	proliferation of cells (WST-1 assay) [2]
B1	significantly increases the proliferation; also recorded: increases the proliferation of colon cancer cells	–
B2	effect on proliferation is significantly more pronounced	–
B3	–	significantly increases the proliferation
B4	–	significantly increases the proliferation
B5	–	significantly increases the proliferation
